# Test results taken from patent US20260042834A1 (HBM ALPHA THERAPEUTICS, published 2026).
# Where a chain is given by its changes, count along the chain named. Where “and” joins values, the source holds several entries; their conditions need not be identical. Equal entries are not always repeated.
# T1: human UCN2 peptide (human, UniProt Q96RP3 72-109, limits assumed, not fully specified; biotin at N- or C-terminus in the ELISA)
# T1 construct: also called hUCN2; hUCN2 (NT Biotin)
# T1 peptide (looked up): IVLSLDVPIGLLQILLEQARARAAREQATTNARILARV
# T2: corticotropin-releasing hormone (CRH) peptide (human and mouse, not fully specified)
# T2 peptide: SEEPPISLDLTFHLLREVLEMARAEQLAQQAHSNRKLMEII
# T3: human UCN1 peptide (human, UniProt P55089 83-122)
# T3 peptide (looked up): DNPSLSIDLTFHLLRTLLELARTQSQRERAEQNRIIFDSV
# T4: biotinylated CRH (human and mouse, not fully specified; biotinylated, position not stated)
# T4 construct: also called Biotin-CRH; biotin-labeled CRH
# T4 peptide: T2 peptide
# T5: corticotropin-releasing hormone (CRH) peptide (human and mouse (same sequence), not fully specified)
# T5 peptide: T2 peptide
# T6: human UCN3 peptide (human, UniProt Q969E3 120-157, not fully specified; biotin at N- or C-terminus in the ELISA)
# T6 construct: also called hUCN3; hUCN3 (NT Biotin)
# T6 peptide (looked up): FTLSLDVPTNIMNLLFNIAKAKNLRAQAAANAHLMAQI
# T7: N-Terminal CRH (human and mouse, C-terminal K-Biotin)
# T7 construct: also called N-Ter-CRH (CT-Bion)
# T7 peptide: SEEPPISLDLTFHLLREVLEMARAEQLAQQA
# T8: hUCN1 (CT Biotin) (human, UniProt P55089 83-122, biotin at the C-terminus)
# T8 construct: also called human UCN1 (CT biotin)
# T8 peptide (looked up): T3 peptide (looked up)
# T9: CRH (NT Biotin) (human and mouse, not fully specified; biotin at the N-terminus)
# T9 peptide: T2 peptide
# T10: hUCN1 (NT Biotin) (human, UniProt P55089 83-122, biotin at the N-terminus)
# T10 construct: also called human UCN1 (NT biotin)
# T10 peptide (looked up): T3 peptide (looked up)
# T11: CRH (CT Biotin) (human and mouse, C-terminal K-Biotin)
# T11 construct: also called Peptide 4 (CRH-Biotin)
# T11 peptide: T2 peptide
# B1: PR302341-34 (antibody, human IgG1, kappa, V domains shown)
# VH: QVQLVQSGAEVKKPGASVKVSCKASGYTFTDYFMKWVRQAPGQGLEWMGVINPNQGDIFYNQKFKGRVTMTVDKSISTAYMELSRLRSDDTAVYYCARGTDRALFAYWGQGTLVTVSS
# VL: DVVMTQSPLSLPVTLGQPASISCRSGQSIVHSDANTYLEWYQQRPGQSPRLLIYKVSNRFSGVPDRFSGSGSGTDFTLKISRVEAEDLGVYYCFQGSHIPWTFGGGTKVEIKR
# notes: Humanized, PTM-removed variant of PR302341
# B2: PR302341-60 (antibody, human IgG1, kappa, V domains shown)
# VH: B1 VH with G44R, M70I, V72R, K74T, I76A, R85S, D89E
# VL: B1 VL
# notes: as for B1
# B3: PR302341-28 (antibody, human IgG1, kappa, V domains shown)
# VH: B1 VH
# VL: B1 VL with A34G
# notes: as for B1
# B4: PR302341-48 (antibody, human IgG1, kappa, V domains shown)
# VH: B1 VH with I76T, R85S, D89E
# VL: B1 VL with S7T, L11S, S48P, S72A
# notes: as for B1
# B5: PR302341-55 (antibody, human IgG1, kappa, V domains shown)
# VH: B1 VH with G44R, Q55N, G56A, M70I, V72R, K74T, I76A, R85S, D89E
# VL: B1 VL with A34G
# notes: as for B1
# B6: PR004290 (antibody, human IgG1, kappa, V domains shown)
# VH: EVQLVESGGVLVQPGGSLRLSCAASGFTFSSYWMTWVRQAPGKGLEWVANIKQDGSEKYYVDSVKGRFTISRDNAKNSLFLQMNSLRAEDTAVYYCARTLIFDYWGQGTLVTVSS
# VL: DIVMTQSPLSLPVTPGEPASISCRSSQSLLHSTGYNSLEWYLQKPGQSPQLLIYLGSNRASGVPDRFSGSGSGTDFTLKISRVEAEDVGIYYCMQTLQTPITFGQGTRLEIKR
# notes: Series 1; human IgG1 wildtype Fc; also called Hybridoma Clone 28b3
# B7: PR005660 (antibody, human IgG1, kappa, V domains shown)
# VH: B6 VH with D54E
# VL: B6 VL with N36Q
# notes: PTM-removal variant of PR004290
# B8: PR302309-11 (antibody, human IgG1, kappa, V domains shown)
# VH: QIQLVQSGSELKKPGASVKVSCKASGYTFTNYGMNWVRQAPGQGLEWMGWINTYTGEPIYTDDFKGRFVFSLDTSVSTAYLQISSLKAEDTAVYYCSRSTMITTGGVFAYWGQGTLVTVSS
# VL: DIVMTQTPLSSPVTLGQPASISCRSSQTIVHSDGNTYLEWLQQRPGQPPRLLIYKVSNRFSGVPDRFSGSGAGTDFTLKISRVEAEDVGVYYCFQGSHVPWTFGGGTKVEIKR
# notes: Humanized variant of PR302309
# B9: PR303394 (antibody, human IgG1, kappa, V domains shown)
# VH: EVQLQQSGPELVKPGVSMKISCKASGYSFTDSTMNWVKQSHGKNLEWIGLIHPDNGGTIYNQKFKGKATLTVHKSSSTAYMELLSLTSEDSAVYYCANGFAYWGQGTLVTVSA
# VL: DVVMTQTPLSLPVSLGDQASISCRSSQSLLHSNGNTYLHWYLQKPGQSPELLIYKVSNRFSGVPDRFSGSGSGTDFTLKISRVEAEDLGVYFCSQSTHVPLTFGAGTKLELKR
# notes: also called analog of CTRND05
# B10: PR006669 (antibody, human IgG1, kappa, V domains shown)
# VH: EVQLVESGGGLVQPGGSLRLSCAASGFTFSDNWMSWVRQAPGKGLEWVANIKQDGSENYYVDSVKGRFTISRDNAKNSLYLQMNSLRAEDTAVYYCSRGLALWGWGQGTLVTVSS
# VL: B6 VL with Q6H, E17D, S37Y, E39D, I80F, S81I, I90V, T96A, I101Y, R108K
# B11: PR006745 (antibody, human IgG1, kappa, V domains shown)
# VH: B10 VH with G55A
# VL: B6 VL with Q6H, E17D, S37Y, E39D, I80F, S81I, I90V, T96A, I101Y, R108K
# B12: PR006746 (antibody, human IgG1, kappa, V domains shown)
# VH: B10 VH with G55S
# VL: B6 VL with Q6H, E17D, S37Y, E39D, I80F, S81I, I90V, T96A, I101Y, R108K
# Molecular target: T1, human UCN2 peptide
# Assay: ELISA on streptavidin-captured hUCN2 (NT biotin) and hUCN2 (CT biotin), mAb at 100 nM and 10 nM; axis labelled RLU, scale 0-4
# Procedure: (§1) Streptavidin (Thermo, Cat: 21125) was diluted in PBS with a concentration of 2 μg/mL. 100 μL of diluted streptavidin was added per well to ELISA microplates, and the plates were incubated overnight at 4° C. Plates were blocked with ELISA blocking solution (containing 2% w/v BSA, 0.05% (v/v) Tween-20, pH 7.4 PBS buffer) at 37° C. for 1 hour, and then incubated with either 1 μg/mL hUCN1 (NT Biotin), hUCN1 (CT Biotin), hUCN2 (NT Biotin), hUCN2 (CT Biotin), hUCN3 (NT Biotin), or hUCN3 (CT Biotin) for 1 hour at 37° C. […] 100 μl of TMB Substrate (Biopanda, Cat: TMB-S-003) was added, and the plates were incubated at room temperature for 15 minutes. 100 μL of ELISA stopping solution (Solarbio, Cat #: C1058) was then added to terminate the reaction, and the OD450 nm was determined by an ELISA plate reader (Molecular Devices, Spectra max 384 plus).
row,binding result,Binder
1,no binding (tested: 100 nM),B1
2,no binding (tested: 100 nM),B2
3,no binding (tested: 100 nM),B3
4,no binding (tested: 100 nM),B4
5,no binding (tested: 100 nM),B5

# Molecular target: T2, corticotropin-releasing hormone (CRH) …
# Assay: cell-based or functional assay
row,CHO-CRE-hCRHR1 0.5 nM CRH IC50,Binder
1,5.41 nM and 3.49 nM,B6
2,10.3 nM,B7
3,0.616 nM,B1
4,0.878 nM,B2
5,0.267 nM,B3
6,0.507 nM,B4
7,0.105 nM,B5
8,2.12 nM,B8
9,2.77 nM,B9

# Molecular target: T3, human UCN1 peptide
# Assay: cell-based or functional assay
CHO-CRE-hCRHR1 1 nM hUCH1 IC50,hUCN1 IC50/ CRH IC50,Binder
21.9 nM and 30 nM,,B1
71 nM,81 fold,B2
33 nM,124 fold,B3
30 nM,59 fold,B4
28 nM,267 fold,B5
42.5 nM,,B9

# Molecular target: T4, biotinylated CRH
# Assay: Octet BLI, biotinylated CRH on SA sensor
Kd,koff,kon,Binder
0.12 nM and 0.0409 nM,,,B7
< 0.001 nM,,,B1
0.0142 nM,3.35e-05 s⁻¹,2.49e+06 M⁻¹ s⁻¹,B2
< 0.001 nM,< 1e-07 s⁻¹,2.63e+06 M⁻¹ s⁻¹,B3
< 0.001 nM,< 1e-07 s⁻¹,1.04e+06 M⁻¹ s⁻¹,B4
< 0.001 nM,< 1e-07 s⁻¹,1.2e+06 M⁻¹ s⁻¹,B5
0.0551 nM,8.48e-06 s⁻¹,154000 M⁻¹ s⁻¹,B8
0.0136 nM,,,B9

# Molecular target: T5, corticotropin-releasing hormone (CRH) …
# Assay: cell-based or functional assay
hCRHR1 Luciferase Reporter Assay IC50,mCrhr1 Luciferase Reporter Assay IC50,Binder
7.38 nM,28.9 nM,B10
13.2 nM,76.2 nM,B11
10 nM,46.4 nM,B12

# Molecular target: T1, human UCN2 peptide
# Assay: ELISA on streptavidin-captured hUCN2 (NT biotin) and hUCN2 (CT biotin), mAb at 100 nM and 10 nM, OD450
# Procedure: as §1
row,binding result,Binder
1,no binding (tested: 100 nM),B7
2,no binding (tested: 100 nM),B8
3,no binding (tested: 100 nM),B9

# Molecular target: T6, human UCN3 peptide
# Assay: ELISA on streptavidin-captured hUCN3 (NT biotin) and hUCN3 (CT biotin), mAb at 100 nM and 10 nM, OD450
# Procedure: as §1
row,binding result,Binder
1,no binding (tested: 100 nM),B7
2,no binding (tested: 100 nM),B8
3,no binding (tested: 100 nM),B9

# Molecular target: T7, N-Terminal CRH
# Assay: ELISA, biotin peptide on streptavidin plate
# Procedure: (§2) Streptavidin (Thermo, Cat: 21125) was diluted in PBS to a concentration of 2 μg/ml. 100 μl of diluted streptavidin was added per well to ELISA microplates, and the plates were incubated overnight at 4° C. […] 100 μL of 3,3′,5,5′-tetramethylbenzidine (TMB) substrate (Biopanda, Cat: TMB-S-003) was added, and the plates were incubated at room temperature for 15 minutes. 100 μL of ELISA stopping solution (Solarbio, Cat #: C1058) was added to terminate the reaction, and the optical density at 450 nm (OD450 nm) was determined by an ELISA plate reader (Molecular Devices, Spectra max 384 plus).
row,EC50,Binder
1,0.076 nM,B7
2,0.028 nM,B8

# Molecular target: T8, hUCN1 (CT Biotin)
# Assay: ELISA, biotin peptide on streptavidin plate
# Procedure: as §2
row,EC50,Binder
1,> 1 nM,B6
2,0.03 nM and 0.022 nM,B1
3,0.036 nM,B2
4,0.032 nM,B3
5,0.023 nM,B4
6,0.018 nM,B5
7,0.451 nM,B8
8,0.022 nM,B9

# Molecular target: T9, CRH (NT Biotin)
# Assay: ELISA, biotin peptide on streptavidin plate
# Procedure: as §2
row,EC50,Binder
1,0.05 nM,B6
2,0.028 nM,B7
3,0.025 nM and 0.038 nM,B1
4,0.043 nM,B2
5,0.052 nM,B3
6,0.045 nM,B4
7,0.022 nM,B5
8,0.032 nM,B8
9,0.028 nM,B9

# Molecular target: T10, hUCN1 (NT Biotin)
# Assay: ELISA, biotin peptide on streptavidin plate
# Procedure: as §2
row,EC50,Binder
1,1.59 nM,B6
2,9.37 nM,B7
3,0.019 nM and 0.016 nM,B1
4,0.026 nM,B2
5,0.026 nM,B3
6,0.017 nM,B4
7,0.013 nM,B5
8,0.078 nM,B8
9,0.018 nM,B9

# Molecular target: T11, CRH (CT Biotin)
# Assay: ELISA, biotin peptide on streptavidin plate
# Procedure: as §2
row,EC50,Binder
1,0.065 nM,B6
2,0.054 nM,B7
3,0.027 nM,B1
4,0.036 nM,B2
5,0.037 nM,B3
6,0.028 nM,B4
7,0.019 nM,B5
8,0.032 nM,B8
